Data from paper PMC6957272, “Activation of a nucleotide-dependent RCK domain requires binding of a cation cofactor to a conserved site” (eLife, 2019).

T1: KtrB (B. subtilis, UniProt O32081 1-445)
T1 construct: KtrB, membrane protein of the B. subtilis KtrAB cation channel; The Strep tag held KtrB on Strep-Tactin beads while KtrA was added to assemble the complex; it was cleaved by thrombin before the size-exclusion step; also called wild-type KtrB; source: E. coli BL21(DE3), extracted with DDM, purified (Strep-Tactin Sepharose, size exclusion); not shown: Strep, N-terminal, cleaved
T1 sequence (looked up): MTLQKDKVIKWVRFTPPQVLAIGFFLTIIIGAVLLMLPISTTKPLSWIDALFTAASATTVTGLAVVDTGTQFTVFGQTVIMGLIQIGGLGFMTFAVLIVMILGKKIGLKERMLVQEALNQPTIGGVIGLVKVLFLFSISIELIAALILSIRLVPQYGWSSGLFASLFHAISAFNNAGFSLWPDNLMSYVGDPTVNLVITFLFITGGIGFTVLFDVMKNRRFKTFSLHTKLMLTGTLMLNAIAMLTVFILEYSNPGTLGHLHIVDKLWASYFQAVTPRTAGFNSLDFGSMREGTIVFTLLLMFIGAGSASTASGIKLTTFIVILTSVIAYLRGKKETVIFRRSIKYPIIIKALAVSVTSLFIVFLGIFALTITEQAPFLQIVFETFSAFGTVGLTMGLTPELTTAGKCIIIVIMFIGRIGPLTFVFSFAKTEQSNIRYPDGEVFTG


Key:
[1] = molecular target: T1, KtrB; experiment: SEC; purified KtrA-ATP (or ADP) added to Strep-KtrB on Strep-Tactin beads, 30 min 4°C, washed, eluted with desthiobiotin, tag cleaved by thrombin, then Superdex-S200 in Buffer F (10 mM HEPES, 7 mM NMG pH 8.0, 150 mM KCl, 0.5 mM DDM, 5 mM DTT, 0.2 mM EDTA); settings: both partners purified
[2] = molecular target: the molecule itself; experiment: crystal structure; KtrA (WT and mutants) with 1 mM ATP or ADP, sitting-drop vapor diffusion at 20°C; WT-ATP with 5 mM CaCl2
[3] = molecular target: the molecule itself; experiment: SEC; KtrA alone, bound to ATP or ADP; Superdex-S200, Buffer C (50 mM Tris-HCl pH 7.5, 150 mM KCl, 5 mM DTT, 0.2 mM EDTA)

Binder | binding result [1] | stoichiometry N [2] | stoichiometry N [3]
wild-type KtrA (natural protein, B. subtilis, KtrA, RCK domain protein of the B. subtilis KtrAB cation channel; tag-less; Tag-less, cloned in a modified pET-24d vector; eluted from ATP-agarose with ATP or ADP and kept with 1 mM nucleotide; also called KtrAWT; WT; source: E. coli BL21(DE3), purified (anion exchange, ATP-agarose, size exclusion)) MGRIKNKQFAVIGLGRFGGSICKELHRMGHEVLAVDINEEKVNAYASYATHAVIANATEENELLSLGIRNFEYVIVAIGANIQASTLTTLLLKELDIPNIWVKAQNYYHHKVLEKIGADRIIHPEKDMGVKIAQSLSDENVLNYIDLSDEYSIVELLATRKLDSKSIIDLNVRAKYGCTILAIKHHGDICLSPAPEDIIREQDCLVIMGHKKDIKRFENEGM | binds | 8 | 
KtrA R16K mutant (natural protein, B. subtilis, KtrA of B. subtilis with R16K; tag-less; source: E. coli BL21(DE3), purified (anion exchange, ATP-agarose, size exclusion)) MGRIKNKQFAVIGLGKFGGSICKELHRMGHEVLAVDINEEKVNAYASYATHAVIANATEENELLSLGIRNFEYVIVAIGANIQASTLTTLLLKELDIPNIWVKAQNYYHHKVLEKIGADRIIHPEKDMGVKIAQSLSDENVLNYIDLSDEYSIVELLATRKLDSKSIIDLNVRAKYGCTILAIKHHGDICLSPAPEDIIREQDCLVIMGHKKDIKRFENEGM |  | 8 | 
KtrA A80P mutant (natural protein, B. subtilis, KtrA of B. subtilis with A80P; tag-less; source: E. coli BL21(DE3), purified (anion exchange, ATP-agarose, size exclusion)) MGRIKNKQFAVIGLGRFGGSICKELHRMGHEVLAVDINEEKVNAYASYATHAVIANATEENELLSLGIRNFEYVIVAIGPNIQASTLTTLLLKELDIPNIWVKAQNYYHHKVLEKIGADRIIHPEKDMGVKIAQSLSDENVLNYIDLSDEYSIVELLATRKLDSKSIIDLNVRAKYGCTILAIKHHGDICLSPAPEDIIREQDCLVIMGHKKDIKRFENEGM | binds |  | 8

Now from value to binder, other results behind:

binding result [1] | Binder | stoichiometry N [2] | stoichiometry N [3]
binds | KtrA E125Q mutant (natural protein, B. subtilis, KtrA of B. subtilis with E125Q; tag-less; source: E. coli BL21(DE3), purified (anion exchange, ATP-agarose, size exclusion)) MGRIKNKQFAVIGLGRFGGSICKELHRMGHEVLAVDINEEKVNAYASYATHAVIANATEENELLSLGIRNFEYVIVAIGANIQASTLTTLLLKELDIPNIWVKAQNYYHHKVLEKIGADRIIHPQKDMGVKIAQSLSDENVLNYIDLSDEYSIVELLATRKLDSKSIIDLNVRAKYGCTILAIKHHGDICLSPAPEDIIREQDCLVIMGHKKDIKRFENEGM | 8 | 
binds | KtrA R16A mutant (natural protein, B. subtilis, KtrA of B. subtilis with R16A; tag-less; source: E. coli BL21(DE3), purified (anion exchange, ATP-agarose, size exclusion)) MGRIKNKQFAVIGLGAFGGSICKELHRMGHEVLAVDINEEKVNAYASYATHAVIANATEENELLSLGIRNFEYVIVAIGANIQASTLTTLLLKELDIPNIWVKAQNYYHHKVLEKIGADRIIHPEKDMGVKIAQSLSDENVLNYIDLSDEYSIVELLATRKLDSKSIIDLNVRAKYGCTILAIKHHGDICLSPAPEDIIREQDCLVIMGHKKDIKRFENEGM | 8 | 
